± gives the uncertainty stated by the source.
Assay: protein stability index of a GFP-peptide fusion (yeast GPS) (PSI 1-4); higher = more stable; sorted into four equal gates, so the index is relative within each strain
In short: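 Tiled 17-residue yeast protein peptides were fused downstream of GFP in a plasmid that also expresses Cherry, and the pooled library was carried in yeast. Mid-log cultures in leucine-free medium were sorted into four equal gates by GFP/Cherry fluorescence ratio, and plasmids from each gate were PCR-amplified and Illumina-sequenced, with reads assigned to strains by barcodes. The protein stability index for each peptide was each gate's read frequency times its gate number, summed.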

Sequence	protein stability index (doa10∆)	protein stability index (pdr5∆)	protein stability index (san1∆)	protein stability index (ubr1∆)
VTDDDRLWLKKVMEEEE [POP8]	1.43 ± 0.066	1.89 ± 0.07	1.57 ± 0.089	2.07 ± 0.07
NFEAALFAKSSSKKEYM [GAL11]	1.99 ± 0.085	2.52 ± 0.084	2.17 ± 0.1	2.67 ± 0.058
IYRYDEMSNKVLKVDKR [BRR2]	2.97 ± 0.042	3.09 ± 0.051	2.96 ± 0.038	2.84 ± 0.047
RSNTGALMRCSFEETVE [RPO21]	3 ± 0.074	3.02 ± 0.077	3.06 ± 0.061	3.01 ± 0.067
EELDITPLFPIDRNSTI [IRR1]	2.48 ± 0.11	2.9 ± 0.14	2.9 ± 0.095	2.8 ± 0.1
VVRAASSLASQDVDFYK [RRP6]	2.13 ± 0.066	2.04 ± 0.057	3.06 ± 0.16	1.48 ± 0.089
PKATSSAGAVFKSSVEM [YOR098C/NUP1]	2.89 ± 0.12	1.86 ± 0.11	2.69 ± 0.1	2.45 ± 0.047
ENVLAIGIAGAHRVRDL [SKI6]	1.97 ± 0.065	2.21 ± 0.059	2.1 ± 0.084	1.74 ± 0.052
ELQKIWQIEEAGNSQIT [SRB5]	2.77 ± 0.08	3.04 ± 0.11	3.08 ± 0.048	3.05 ± 0.066
SRRFKNGFQTGSAKATS [RPL37B]	3.13 ± 0.078	3.12 ± 0.087	3.37 ± 0.096	3.17 ± 0.059
LFEIYRDLGDDRVFNVP [YJR042W/NUP85]	2.87 ± 0.11	3.2 ± 0.1	2.75 ± 0.11	2.89 ± 0.097
YSLLLASKGIDRLSLQD [ECM29]	2.45 ± 0.2	3.23 ± 0.16	–	2.83 ± 0.11
QLLQRIPNIPPNINTWQ [GAL11]	2.55 ± 0.048	2.72 ± 0.049	1.96 ± 0.059	2.62 ± 0.044
SLEHELKRSTELLETVS [YIL149C/MLP2]	2 ± 0.057	2.21 ± 0.054	2.25 ± 0.071	2.17 ± 0.037
TNWARTTFRNEYGKHDF [MED8]	2.82 ± 0.097	2.56 ± 0.079	2.91 ± 0.088	3.55 ± 0.19
SAVLLETTLGEMAEKID [PRP8]	1.12 ± 0.13	1.55 ± 0.098	1.21 ± 0.2	1.65 ± 0.11
ATMENIQKGKFTLLDFK [SRP54]	2.98 ± 0.068	3.04 ± 0.081	2.42 ± 0.089	2.96 ± 0.046
GEGERFTVDKKIAERSL [SKP1]	3.44 ± 0.12	3.38 ± 0.12	3.36 ± 0.12	3.37 ± 0.24
TDRQKKLLGVDMQSSVD [YLR018C/POM34]	3.2 ± 0.057	3.08 ± 0.055	3.19 ± 0.043	3.15 ± 0.044
SPTYSPTSPAYSPTSPS [RPO21]	3.08 ± 0.045	3.05 ± 0.042	3 ± 0.032	2.93 ± 0.033
EVLVTPGLEFLDDTTIP [MCD1]	2.02 ± 0.057	2.98 ± 0.059	3.25 ± 0.037	3.08 ± 0.059
TKSPAYPMMHQVRNQVF [RGR1]	1.78 ± 0.047	1.88 ± 0.054	1.8 ± 0.077	2.23 ± 0.047
YKLSTVVLRLYLKDNIT [GRR1]	1.64 ± 0.06	1.53 ± 0.051	1.36 ± 0.081	1.68 ± 0.068
RKIEAETRNGKVKNQGA [YCS4]	2.89 ± 0.14	3.43 ± 0.12	3.12 ± 0.12	3.22 ± 0.13
KKCLKLAYENKITDKED [POP4]	2.698 ± 0.022	2.785 ± 0.027	2.797 ± 0.02	3.032 ± 0.025
PMIKAEETPSKTNKISI [NUT1]	2.52 ± 0.057	2.8 ± 0.049	2.6 ± 0.06	2.84 ± 0.051
GPVRENDILVLMESERE [RPS28A]	2.61 ± 0.23	3.4 ± 0.083	3.26 ± 0.14	2.81 ± 0.092

Sequence	protein stability index (doa10∆)	protein stability index (pdr5∆)	protein stability index (san1∆)	protein stability index (ubr1∆)
PAWFNNPRKRAIPNSII [YMR153W/NUP53]	2.62 ± 0.084	2.94 ± 0.083	3.21 ± 0.079	3.25 ± 0.084
ASQPEPTTNEPAKPALS [YJL041W/NSP1]	2.81 ± 0.097	3.14 ± 0.077	2.92 ± 0.059	3.12 ± 0.06
LPYNWDALEMQWRYLYD [ARP7]	2.1 ± 0.065	2.1 ± 0.073	2.44 ± 0.11	2.19 ± 0.068
DGENDKKEATKPAFSFG [YLR335W/NUP2]	2.59 ± 0.048	2.21 ± 0.043	2.79 ± 0.041	2.9 ± 0.033
DEGTALSRLGLKRYCCR [RPB10]	3.38 ± 0.11	3.23 ± 0.15	3.53 ± 0.079	2.79 ± 0.12
KLTRELEKKFPDRHVIF [RPS7B]	2.75 ± 0.058	2.94 ± 0.049	2.99 ± 0.04	3.14 ± 0.033
FAQPVADIENSTSGDPS [SSN2]	–	3.14 ± 0.23	2.9 ± 0.16	2.75 ± 0.24
VLETHESGIKPYFEQKI [RPT6]	2.33 ± 0.21	2.29 ± 0.28	2.58 ± 0.065	–
LKVNVTLDNPLLVDKDA [YJL039C/NUP192]	3.02 ± 0.077	2.93 ± 0.065	3 ± 0.041	2.7 ± 0.051
DLDTVLKKDIESLRGIL [SRP72]	1.63 ± 0.088	1.38 ± 0.096	1.37 ± 0.25	1.61 ± 0.089
WTRGTGLMSANNIIAEG [FAS2]	2.98 ± 0.096	2.85 ± 0.086	3.06 ± 0.093	–
EKLTMVFQDNVYKIYNH [SIN4]	2.08 ± 0.06	2.53 ± 0.053	1.6 ± 0.086	1.81 ± 0.037
KNREVVQVSKAGGLPMD [RRP45]	3.04 ± 0.11	2.84 ± 0.097	2.54 ± 0.095	3.28 ± 0.067
YDRQLSSLFLDGLEKAA [FAS2]	2.96 ± 0.084	2.93 ± 0.074	2.79 ± 0.095	2.95 ± 0.079
NLTYSSGLFVDVKKRTY [RPB2]	2.31 ± 0.052	2.58 ± 0.051	2.4 ± 0.071	2 ± 0.031
TVKTSDDYVLRIFAIAF [RPS1A]	2.534 ± 0.02	2.308 ± 0.018	2.453 ± 0.023	2.55 ± 0.016
QSKEILKGLLQELKADS [SRP72]	2.36 ± 0.17	2.13 ± 0.27	2.75 ± 0.096	2.6 ± 0.11
ADPVALYLGLKRGEVVK [RPB5]	1.67 ± 0.24	1.6 ± 0.15	1.32 ± 0.14	1.37 ± 0.13
TELLDEFIAAVNNPQEE [RPN10]	3.01 ± 0.17	3.17 ± 0.14	3.08 ± 0.064	2.83 ± 0.15
FLDGIYVSHKGFIVEDM [RPL9B]	2.24 ± 0.13	2.86 ± 0.074	2.74 ± 0.087	2.66 ± 0.13
TGDVLLIQDLLHRLTPK [RPN1]	3.12 ± 0.07	3.03 ± 0.061	3.01 ± 0.062	2.8 ± 0.059
TDQILQLLKEDSEKRNK [RRP45]	3.12 ± 0.16	3.3 ± 0.29	3.52 ± 0.098	3.36 ± 0.11
PKTELTKGDSTPVQPDL [YAR002W/NUP60]	3.16 ± 0.055	3.14 ± 0.067	3.08 ± 0.072	3.1 ± 0.037
VQPPLDKFPYKKLELPK [SWP82]	2.79 ± 0.074	2.11 ± 0.055	2.73 ± 0.061	2.93 ± 0.055
MSDTEAPVEVQEDFEVV [RPS5]	3.23 ± 0.1	3.24 ± 0.15	3.35 ± 0.078	3.09 ± 0.086
ARAVQDNGESAFRTLRL [RPL13A]	3 ± 0.13	2.88 ± 0.1	1.57 ± 0.098	2.87 ± 0.096

— the supplement of paper PMC9732359
